The values that follow come from US20160361434A1 (COVALAB, published 2016).

The chains are these.
T1: Recombinant microbial transglutaminase (mTG) (Streptoverticillium mobaraense, UniProt P81453 77-407)
T1 sequence (looked up): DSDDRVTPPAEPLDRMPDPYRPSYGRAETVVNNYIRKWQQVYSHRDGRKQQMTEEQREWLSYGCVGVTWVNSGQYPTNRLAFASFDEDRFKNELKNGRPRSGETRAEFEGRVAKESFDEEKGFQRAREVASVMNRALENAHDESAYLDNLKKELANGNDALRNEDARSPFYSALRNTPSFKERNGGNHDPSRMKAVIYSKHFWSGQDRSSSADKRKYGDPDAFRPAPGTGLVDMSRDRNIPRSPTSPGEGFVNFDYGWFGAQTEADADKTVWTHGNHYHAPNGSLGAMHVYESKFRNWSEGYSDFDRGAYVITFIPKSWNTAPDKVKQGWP

Where no end group is shown, it is not given here. A value given as a limit tells only on which side of the number the result lay.

This assay has as its target T1, Recombinant microbial transglutaminase …. Kind of assay: cell-based or functional assay.
Regarding SPLKHQEY (also: biotin tag, position not given here) [bSY8Q6], the “Kmapp” value was > 50 µM.
The same measure for YEAQK (also: biotinylated, position not given here) [BEST2]: 0.114 µM.
With PLVQSH (also: biotin tag, position not given here) [bPH6Q4], the “Kmapp” value worked out at 14.8 µM.
The value for DVYSQH (also: biotin tag, position not given here) [bDH6Q5] was 33.1 µM; that for FWIQE (also: biotin tag, position not given here) [bFE5Q4] was 5 µM; that for WPAQR (also: biotinylated, position not given here) [BEST4] was 0.225 µM.
The same measure for HDLMWPDVYSQH (also: biotin tag, position not given here) [bHH12Q11]: 3.08 µM; for YEAQR (also: biotinylated, position not given here) [BEST3]: 0.08 µM.
The value for YEIQR (also: biotinylated, position not given here) [BEST1] was 0.086 µM; that for LLTLPSVQEQN (also: biotin tag, position not given here) [bLN11Q8-10] was 172 µM; that for WPDVYSQH (also: biotin tag, position not given here) [bWH8Q7] was 11.4 µM.
